US20190359687A1 (Bayer, published 2019)

B1: TPP-9161 FVIII-scFv fusion protein (other)
chain: ATRRYYLGAVELSWDYMQSDLGELPVDARFPPRVPKSFPFNTSVVYKKTLFVEFTDHLFNIAKPRPPWMGLLGPTIQAEVYDTVVITLKNMASHPVSLHAVGVSYWKASEGAEYDDQTSQREKEDDKVFPGGSHTYVWQVLKENGPMASDPLCLTYSYLSHVDLVKDLNSGLIGALLVCREGSLAKEKTQTLHKFILLFAVFDEGKSWHSETKNSLMQDRDAASARAWPKMHTVNGYVNRSLPGLIGCHRKSVYWHVIGMGTTPEVHSIFLEGHTFLVRNHRQASLEISPITFLTAQTLLMDLGQFLLFCHISSHQHDGMEAYVKVDSCPEEPQLRMKNNEEAEDYDDDLTDSEMDVVRFDDDNSPSFIQIRSVAKKHPKTWVHYIAAEEEDWDYAPLVLAPDDRSYKSQYLNNGPQRIGRKYKKVRFMAYTDETFKTREAIQHESGILGPLLYGEVGDTLLIIFKNQASRPYNIYPHGITDVRPLYSRRLPKGVKHLKDFPILPGEIFKYKWTVTVEDGPTKSDPRCLTRYYSSFVNMERDLASGLIGPLLICYKESVDQRGNQIMSDKRNVILFSVFDENRSWYLTENIQRFLPNPAGVQLEDPEFQASNIMHSINGYVFDSLQLSVCLHEVAYWYILSIGAQTDFLSVFFSGYTFKHKMVYEDTLTLFPFSGETVFMSMENPGLWILGCHNSDFRNRGMTALLKVSSCDKNTGDYYEDSYEDISAYLLSKNNAIEPRSFSQNGGGGSTGGTGGSSGGGTGSGGGGTGGSGGTDIQLTQSPSFLSASVGDRVTITCRASSSVRYIYWFQQKPGKAPKLLIYATSFRQSGVPSRFSGSGSGTEYTLTISSLQPEDFATYYCHQRNSFPYTFGQGTKLEIKGGGGSGGGGSGGGGSGGGGSEVQLVQSGAEVKKPGASVKVSCKASGYTFTTYAIHWVRQAPGQGLEWMGYINPSSGYTRYNPKFKGRVTMTRDKSTSTAYMELRSLRSDDTAVYYCWTGTRDYWGQGTTVTVSSGGGGSQNPPVLKRHQREITDENQSPRSFQKKTRHYFIAAVERLWDYGMSSSPHVLRNRAQSGSVPQFKKVVFQEFTDGSFTQPLYRGELNEHLGLLGPYIRAEVEDNIMVTFRNQASRPYSFYSSLISYEEDQRQGAEPRKNFVKPNETKTYFWKVQHHMAPTKDEFDCKAWAYFSDVDLEKDVHSGLIGPLLVCHTNTLNPAHGRQVTVQEFALFFTIFDETKSWYFTENMERNCRAPCNIQMEDPTFKENYRFHAINGYIMDTLPGLVMAQDQRIRWYLLSMGSNENIHSIHFSGHVFTVRKKEEYKMALYNLYPGVFETVEMLPSKAGIWRVECLIGEHLHAGMSTLFLVYSNKCQTPLGMASGHIRDFQITASGQYGQWAPKLARLHYSGSINAWSTKEPFSWIKVDLLAPMIIHGIKTQGARQKFSSLYISQFIIMYSLDGKKWQTYRGNSTGTLMVFFGNVDSSGIKHNIFNPPIIARYIRLHPTHYSIRSTLRMELMGCDLNSCSMPLGMESKAISDAQITASSYKTNMFATWSPSKARLHLQGRSNAWRPQVNNPKEWLQVDFQKTMKVTGVTTQGVKSLLTSMYVKEFLISSSQDGHQWTLFFQNGKVKVFQGNQDSFTPVVNSLDPPLLTRYLRIHPQSWVHQIALRMEVLGCEAQDLY
notes: also called PPB 7644
B2: TPP-9423 FVIII-scFv fusion protein (other)
chain: DIQLTQSPSFLSASVGDRVTITCRASSSVRYIYWFQQKPGKAPKLLIYATSFRQSGVPSRFSGSGSGTEYTLTISSLQPEDFATYYCHQRNSFPYTFGQGTKLEIKGGGGSGGGGSGGGGSGGGGSEVQLVQSGAEVKKPGASVKVSCKASGYTFTTYAIHWVRQAPGQGLEWMGYINPSSGYTRYNPKFKGRVTMTRDKSTSTAYMELRSLRSDDTAVYYCWTGTRDYWGQGTTVTVSSGGGSGGGGSGLVPRGSGGGSGGGGSGATRRYYLGAVELSWDYMQSDLGELPVDARFPPRVPKSFPFNTSVVYKKTLFVEFTDHLFNIAKPRPPWMGLLGPTIQAEVYDTVVITLKNMASHPVSLHAVGVSYWKASEGAEYDDQTSQREKEDDKVFPGGSHTYVWQVLKENGPMASDPLCLTYSYLSHVDLVKDLNSGLIGALLVCREGSLAKEKTQTLHKFILLFAVFDEGKSWHSETKNSLMQDRDAASARAWPKMHTVNGYVNRSLPGLIGCHRKSVYWHVIGMGTTPEVHSIFLEGHTFLVRNHRQASLEISPITFLTAQTLLMDLGQFLLFCHISSHQHDGMEAYVKVDSCPEEPQLRMKNNEEAEDYDDDLTDSEMDVVRFDDDNSPSFIQIRSVAKKHPKTWVHYIAAEEEDWDYAPLVLAPDDRSYKSQYLNNGPQRIGRKYKKVRFMAYTDETFKTREAIQHESGILGPLLYGEVGDTLLIIFKNQASRPYNIYPHGITDVRPLYSRRLPKGVKHLKDFPILPGEIFKYKWTVTVEDGPTKSDPRCLTRYYSSFVNMERDLASGLIGPLLICYKESVDQRGNQIMSDKRNVILFSVFDENRSWYLTENIQRFLPNPAGVQLEDPEFQASNIMHSINGYVFDSLQLSVCLHEVAYWYILSIGAQTDFLSVFFSGYTFKHKMVYEDTLTLFPFSGETVFMSMENPGLWILGCHNSDFRNRGMTALLKVSSCDKNTGDYYEDSYEDISAYLLSKNNAIEPRSFSQNDENQSPRSFQKKTRHYFIAAVERLWDYGMSSSPHVLRNRAQSGSVPQFKKVVFQEFTDGSFTQPLYRGELNEHLGLLGPYIRAEVEDNIMVTFRNQASRPYSFYSSLISYEEDQRQGAEPRKNFVKPNETKTYFWKVQHHMAPTKDEFDCKAWAYFSDVDLEKDVHSGLIGPLLVCHTNTLNPAHGRQVTVQEFALFFTIFDETKSWYFTENMERNCRAPCNIQMEDPTFKENYRFHAINGYIMDTLPGLVMAQDQRIRWYLLSMGSNENIHSIHFSGHVFTVRKKEEYKMALYNLYPGVFETVEMLPSKAGIWRVECLIGEHLHAGMSTLFLVYSNKCQTPLGMASGHIRDFQITASGQYGQWAPKLARLHYSGSINAWSTKEPFSWIKVDLLAPMIIHGIKTQGARQKFSSLYISQFIIMYSLDGKKWQTYRGNSTGTLMVFFGNVDSSGIKHNIFNPPIIARYIRLHPTHYSIRSTLRMELMGCDLNSCSMPLGMESKAISDAQITASSYKTNMFATWSPSKARLHLQGRSNAWRPQVNNPKEWLQVDFQKTMKVTGVTTQGVKSLLTSMYVKEFLISSSQDGHQWTLFFQNGKVKVFQGNQDSFTPVVNSLDPPLLTRYLRIHPQSWVHQIALRMEVLGCEAQDLY
notes: also called 9423 (F2196K)

How the values were obtained:
[1] = biological target: T1, human glycophorin A on human red blood cells (human, UniProt P02724 20-150); experiment: partition to human RBC, vWF deficient plasma, 1 min
T1 construct: whole, on cells; also called human GPA; huGPA
T1 sequence (looked up): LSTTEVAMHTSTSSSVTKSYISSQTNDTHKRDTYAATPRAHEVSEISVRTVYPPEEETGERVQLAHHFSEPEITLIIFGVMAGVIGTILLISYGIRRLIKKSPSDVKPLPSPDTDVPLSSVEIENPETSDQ

[2] = biological target: T1, human glycophorin A on human red blood …; experiment: partition to human RBC, vWF deficient plasma, 15 min
[3] = biological target: T1, human glycophorin A on human red blood …; experiment: partition to human RBC, vWF deficient plasma, 5 min
[4] = biological target: T1, human glycophorin A on human red blood …; experiment: partition to human RBC, vWF deficient plasma, 120 min
[5] = biological target: T1, human glycophorin A on human red blood …; experiment: partition to human RBC, vWF deficient plasma, 30 min
[6] = biological target: T1, human glycophorin A on human red blood …; experiment: partition to human RBC, vWF deficient plasma, 60 min
[7] = biological target: T2, Cynomolgus monkey glycophorin A on Cynomolgus monkey red blood cells (Cynomolgus monkey); experiment: partition to Cyno RBC, human HemA plasma, 120 min;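 also: FVIII fusion spiked at 1 IU/mL into RBC suspension at whole-blood density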
T2 construct: whole, on cells; also called Cyno GPA; Cyno RBC
Procedure: To evaluate partition to cynomolgus monkey or human red blood cells, whole blood was draw from Cynomolgus monkey or normal human volunteers in to anticoagulant with 4% sodium citrate (Sigma, St Louis, Mo.). The red blood cells were purified by layering the whole blood on to ficoll followed by low speed centrifugation. The supernatant containing plasma, platelets and white blood cells was discarded and the red blood cell pellet was resuspended in 10 pellet volumes of PBS (50 mM Phosphate buffer, pH7.4, 150 mM NaCl). The red blood cells were then pelleted by slow speed centrifugation and the red blood cells re-suspended in 10 volumes of PBS. This washing step was repeated 4 more times and the red blood cells finally resuspended in a volume of plasma from Hemophilia patients with less than 1% of normal levels of FVIII (GeorgeKing Bio-Medical, Overland Park, Kans.) to generate a total volume equal to the initial blood volume such that the RBC density was equal to that of normal whole blood. BDD and RBC targeted FVIII molecules were then spiked into RBC suspension in HemA plasma at 1 IU/mL, and incubated at room temperature for 2-3 hours with gentle rotation. […] An additional control was performed in which BDD or RBC targeted FVIII molecules were added at 11U/ml into the same human hemophilia A plasma and incubated for 5 minutes and 180 mins. These samples were used to determine the input FVIII activity in the presence of plasma which was used to calculate the percentage of the molecule that was bound to RBC. All plasma samples were then assayed together for FVIII activity using the Coatest SP assay (DiaPharma, Columbus, Ohio). The assay was performed following the manufacturer's instructions in a 96-well plate format. […] The plate was incubated at 37° C. for 10 minutes with shaking between each reagent addition.

[8] = biological target: T3, glycophorin A peptide GP5 (human, biotin at the N-terminus); experiment: Octet, GP5 peptide on the probe, fusion protein in solution, 1:1 fit
T3 construct: Residues 42 to 61 of the human glycophorin A extracellular domain
T3 peptide: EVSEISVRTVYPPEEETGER

Binder | percentage bound to human RBC [1] [%] | percentage bound to human RBC [2] [%] | percentage bound to human RBC [3] [%] | percentage bound to human RBC [4] [%] | percentage bound to human RBC [5] [%] | percentage bound to human RBC [6] [%] | % bound to Cyno RBC [7] [%] | Kd [8] [nM] | koff [8] [s⁻¹] | kon [8] [M⁻¹ s⁻¹]
B1 | 51.4 | 82.9 | 78.4 | 84.2 | 85.9 | 86.2 |  |  |  | 
B2 | 44.1 | 89.9 | 87.4 | 92.3 | 91.2 | 80.3 | 62.8 | 1.27 | 0.00066 | 520000
